Experimental data as given in PMC7406314.

Target: ARPC1A-STREP (human) (UniProt Q92747)
Test: co-purification of a co-expressed recombinant complex; Arp2/3-C1A complexes with ARPC5, ARPC5L or hybrids co-expressed in Sf21 cells and purified as previously described (Abella et al., 2016); Coomassie-stained gel, band quantification with Fiji normalised to ARPC2; immunoblot of the purified complexes

ARPC5L, sequence (Q9BPX5 whole entry): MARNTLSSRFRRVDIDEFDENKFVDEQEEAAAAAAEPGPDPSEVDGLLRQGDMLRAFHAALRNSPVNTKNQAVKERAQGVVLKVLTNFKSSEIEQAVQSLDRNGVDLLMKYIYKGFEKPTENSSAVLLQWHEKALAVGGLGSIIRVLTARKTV
UniProt Q92747, sequence (Q92747 whole entry): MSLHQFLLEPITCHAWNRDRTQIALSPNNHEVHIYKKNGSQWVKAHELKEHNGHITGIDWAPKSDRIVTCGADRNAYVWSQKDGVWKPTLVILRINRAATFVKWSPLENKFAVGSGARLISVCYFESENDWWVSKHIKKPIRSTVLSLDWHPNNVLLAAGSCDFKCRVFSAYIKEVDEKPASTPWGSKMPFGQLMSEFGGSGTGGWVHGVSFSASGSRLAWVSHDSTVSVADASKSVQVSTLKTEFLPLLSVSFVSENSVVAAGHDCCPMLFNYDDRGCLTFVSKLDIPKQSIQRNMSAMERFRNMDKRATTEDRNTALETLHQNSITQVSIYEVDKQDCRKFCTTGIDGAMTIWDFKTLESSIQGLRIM

Substance: ARPC5L (from UniProt Q9BPX5 1-153) (natural protein)
- gel band ratio to ARPC2 in the purified Arp2/3-C1A complex (subunit occupancy): 0.52
